Data published in patent US10450368.

What was measured:
RSC3 delta371I = test: ELISA
[1] = molecular target: HIV-1 Env resurface core protein 3 (RSC3); test: direct-binding ELISA (OD450), panel 'RSC3'
[2] = molecular target: CH505.TF mutant gp120 M8 (HIV-1); test: direct-binding ELISA (OD450), panel 'CH505.TF gp120 M8'
CH505.TF gp120 delta371I = test: direct-binding ELISA (OD450), panel 'CH505.TF gp120 delta371I'
[3] = molecular target: BG505 SOSIP.664 gp140 trimer (HIV-1); test: negative stain EM

2G12 (antibody)
EC50 (read off the curve) (RSC3 delta371I): 0.01 µg/mL
EC50 (read off the curve) [1]: 0.01 µg/mL
EC50 (read off the curve) [2]: 0.2 µg/mL
EC50 (read off the curve) (CH505.TF gp120 delta371I): 0.2 µg/mL

CH103 Fab
stoichiometry (Fabs per trimer) (Fabs per trimer) [3]: 3
